These results are taken from US10124035B2, “DISC-1 pathway activators in the control of neurogenesis” (Massachusetts Institute of Technology, priority 2008, dated 2018).

The target of one experiment is T1, GSK3β (Homo sapiens, UniProt P49841).
T1 construct: GST; purchased Active Motif (Carlsbad, Calif.)
Briefly: GSK3β in vitro kinase assay (β-catenin/axin phosphorylation, Y216 autophosphorylation). Type of experiment: biochemical. Particulars: for inhibition of GSK3β activity by DISC1 fragments: no single concentration, dose dependence, rank. From the text:
• Mice. Swiss Webster pregnant female mice were purchased from Taconic (Hudson, N.Y.). • Cell Culture. AHPs were kindly provided by Dr. Gage (Lie, D. C. et al. Wnt signaling to regulates adult hippocampal neurogenesis. Nature 437, 1370-5 (2005)) and cultured under conditions described previously (Palmer, T. D., Takahashi, J. & Gage, F. H. The adult rat hippocampus contains primordial neural stem cells. Mol Cell Neurosci 8, 389-404 (1997)). Primary neural progenitors were isolated from E14 mouse embryos and cultured as described previously (Sanada, K. & Tsai, L. H. G protein betagamma subunits and AGS3 control spindle orientation and asymmetric cell fate of cerebral cortical progenitors. Cell 122, 119-31 (2005)). N2a and 293T cells were cultured in DMEM medium containing 10% FBS, L-glutamine, and penicillin/streptomycin. Wnt3a expressing L cells and untransfected L cells were obtained from ATCC (Manassas, Va.). Wnt3a conditional medium was produced according to the ATCC protocol. To induce AHP differentiation, FGF2 was removed from the culture medium and 1 μM retinoic acid/1% FBS was added to the medium for 4 days. • Reagents. Recombinant Wnt3a protein was obtained from Chemicon (Rosemont, Ill.). FGF2 was obtained from PeproTech (Rocky Hill, N.J.). Recombinant GST-GSK3β was obtained from Active Motif (Carlsbad, Calif.). Recombinant GST-β-catenin and GST-axin were obtained from Millipore (Billerica, Mass.). The GSK313 inhibitor, SB-216763, AR-A104418 and His-GSK3β, were obtained from Sigma-Aldrich (Sigma-Aldrich, St. Louis, Mo.). L803-MTS was obtained from Calbiochem (San Diego, Calif.). GST-AKT1 was obtained from Cell Signaling (Beverly, Mass.). GST-CASK-1 (CASK fragment from 316-415aa), GST-CASK-2 (CASK fragment from 777-974aa), and GST-p25 proteins were kindly provided by Dr. B. A. Samuels. Mouse DISC1 peptidel (40-78aa: GYMRSTAGSG IGFLSPAVGMPHPSSAG LTGQQSQHSQS; SEQ ID NO: 1) and Mouse DISC1 peptide 2 (195-238aa, […] GERGEAEGCLPSREAE; SEQ ID NO: 2) were synthesized by Chi Scientific (Maynard, Mass.). • Antibodies. The primary antibodies used in this study were the following: rabbit anti-DISC1 C-terminal antibody, mouse and rabbit anti-GFP antibodies (Invitrogen, Carlsbad, Calif.); affinity purified rabbit anti-DISC1 antibody (Novus, Littleton, Colo.) for immunohistochemistry; mouse anti-FLAG and mouse anti-Actin antibody; mouse anti-GSK3β antibody, mouse anti-β-catenin antibody, mouse anti-pY216 GSK3β antibody, and mouse anti-nestin antibody (BD Biosciences, San Diego, Calif.); rabbit anti-[…] β-catenin antibody, rabbit anti-pS9 GSK3β antibody, and mouse anti-cyclin to D1 antibody (Cell Signaling); mouse anti-Dv12 antibody, mouse anti-HA antibody, mouse anti-GST antibody, mouse anti-ubiquitin antibody, and rabbit anti-β-catenin antibody (Santa Cruz, Santa Cruz, Calif.); mouse Tuj-1 antibody (BABCO, Harrisburg, Pa.); mouse anti-BrdU antibody (DakoCytomation, Glostrup, Denmark); guinea pig anti-doublecortin antibody (Chemicon, Rosemont, Ill.); chicken anti-GFP antibody (Ayes Labs, Tigard, Oreg.); rabbit anti-pS10 Histone H3 antibody (Upstate, Lake Placid, N.Y.). • Constructs. The sequences for shRNAs targeting DISC1 are as follows: control shRNA: 5′-CGGCTGAAACAAGAGTTGG-3′ (SEQ ID NO:3); DISC1 shRNA-1: 5′-GGCAAACACTGTGA AGT GC-3′ (SEQ ID NO:4); DISC1 shRNA-2: 5′-[…]-3′ (SEQ ID NO:5)(Kamiya A. et al. A schizophrenia-associated mutation of DISC1 perturbs cerebral cortex development. Nat. Cell Biol 7, 1167-78 (2005)). DISC1 shRNA-1 recognizes both rat and mouse DISC1. […]

For the next experiment, the target named is T2, His-GSK3β (Homo sapiens, UniProt P49841).
T2 construct: purchased Sigma-Aldrich (St. Louis, Mo.)
T2 sequence (P49841 whole entry): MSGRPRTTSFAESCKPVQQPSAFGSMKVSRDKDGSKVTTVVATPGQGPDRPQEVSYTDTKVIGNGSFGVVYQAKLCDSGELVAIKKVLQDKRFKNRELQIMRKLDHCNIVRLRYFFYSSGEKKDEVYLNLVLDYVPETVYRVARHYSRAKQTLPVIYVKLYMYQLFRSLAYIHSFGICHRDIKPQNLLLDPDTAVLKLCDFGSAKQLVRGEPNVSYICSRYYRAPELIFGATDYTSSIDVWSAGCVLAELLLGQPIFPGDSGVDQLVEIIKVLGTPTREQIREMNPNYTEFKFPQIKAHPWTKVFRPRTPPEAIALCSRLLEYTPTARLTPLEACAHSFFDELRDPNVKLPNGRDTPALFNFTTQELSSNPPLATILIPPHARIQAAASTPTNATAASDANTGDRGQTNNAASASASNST
As to the kind of experiment: In vitro association (GST pull-down) with purified His-GSK3β. The settings on record: GST-tagged DISC1 fragments, in vitro association assay. In kind it is binding. The source says:
(§1) • Mice. Swiss Webster pregnant female mice were purchased from Taconic (Hudson, N.Y.). • Cell Culture. AHPs were kindly provided by Dr. Gage (Lie, D. C. et al. Wnt signaling to regulates adult hippocampal neurogenesis. Nature 437, 1370-5 (2005)) and cultured under conditions described previously (Palmer, T. D., Takahashi, J. & Gage, F. H. The adult rat hippocampus contains primordial neural stem cells. Mol Cell Neurosci 8, 389-404 (1997)). Primary neural progenitors were isolated from E14 mouse embryos and cultured as described previously (Sanada, K. & Tsai, L. H. G protein betagamma subunits and AGS3 control spindle orientation and asymmetric cell fate of cerebral cortical progenitors. Cell 122, 119-31 (2005)). N2a and 293T cells were cultured in DMEM medium containing 10% FBS, L-glutamine, and penicillin/streptomycin. Wnt3a expressing L cells and untransfected L cells were obtained from ATCC (Manassas, Va.). Wnt3a conditional medium was produced according to the ATCC protocol. To induce AHP differentiation, FGF2 was removed from the culture medium and 1 μM retinoic acid/1% FBS was added to the medium for 4 days. • Reagents. Recombinant Wnt3a protein was obtained from Chemicon (Rosemont, Ill.). FGF2 was obtained from PeproTech (Rocky Hill, N.J.). Recombinant GST-GSK3β was obtained from Active Motif (Carlsbad, Calif.). […]

Experiment [1] relates to adult hippocampal progenitor (AHP) cells. As to the kind of experiment: AHP cell proliferation, BrdU labeling and mitotic index. In kind it is cell-based. The settings on record: Wnt3a 200 ng/ml.
Description: as §1
Background: Incorporation of labelled thymidine or its analogues reports DNA synthesis.

Entries after “also recorded” stand apart in the source; their conditions may differ.

T1 sequence (P49841 whole entry): as above

B1: DISC1 fragment 356-595: GST-tagged mouse DISC1 protein fragment, amino acids 356-595 (protein, UniProt Q811T9 356-595, looked up, fragment)
chain: LKLQKCQEKVVEDGDYDTAETLRQRLEELEQEKGRLSWALPSQQPALRSFLGYLAAQIQVALHGATQRAGSDDPEAPLEGQLRTTAQDSLPASITRRDWLIREKQRLQKEIEALQARMSALEAKEKRLSQELEEQEVLLRWPGCDLMALVAQMSPGQLQEVSKALGETLTSANQAPFQVEPPETLRSLRERTKSLNLAVRELTAQVCSGEKLCSSLRRRLSDLDTRLPALLEAKMLALSG
modifications: GST tag
For the molecule B1, the “inhibition of GSK3β autophosphorylation (Y216)” value with GSK3β (GST-DISC1 fragments at 2 μM) is on record as “started to inhibit GSK3β autophosphorylation”. The “inhibition of GSK3β activity by DISC1 fragments” value in the experiment with GSK3β was “able to inhibit GSK3 activity”. Further, in the experiment with His-GSK3β, the “interaction with purified His-GSK3β” value is on record as “strong interactions; also recorded: directly associate with purified GSK3β; also recorded: interacts directly”.

B2: Wnt3a: Recombinant Wnt3a protein obtained from Chemicon (protein, UniProt P56704 19-352, looked up)
Protein Wnt-3a: SYPIWWSLAVGPQYSSLGSQPILCASIPGLVPKQLRFCRNYVEIMPSVAEGIKIGIQECQHQFRGRRWNCTTVHDSLAIFGPVLDKATRESAFVHAIASAGVAFAVTRSCAEGTAAICGCSSRHQGSPGKGWKWGGCSEDIEFGGMVSREFADARENRPDARSAMNRHNNEAGRQAIASHMHLKCKCHGLSGSCEVKTCWWSQPDFRAIGDFLKDKYDSASEMVVEKHRESRGWVETLRPRYTYFKVPTERDLVYYEASPNFCEPNPETGSFGTRDRTCNVSSHGIDGCDLLCCGRGHNARAERRREKCRCVFHWCCYVSCQECTRVYDVHTCK
For B2, in experiment [1], the “proliferation of AHPs” value is on record as “significantly stimulated proliferation of AHPs”.

B3: DISC1 fragment 1-220: GST-tagged mouse DISC1 protein fragment, amino acids 1-220 (protein)
chain: MQGGGPRGAPIHSPSHGADSGHGLPPAVAPQRRRLTRRPGYMRSTAGSGIGFLSPAVGMPHPSSAGLTGQQSQHSQSKAGQCGLDPGSHCQASLVGKPFLKSSLVPAVASEGHLHPAQRSMRKRPVHFAVHSKNDSRQSERLTGSFKPGDSGFWQELLSSDSFKSLAPSLDAPWNKGSRGLKTVKPLASPALNGPADIASLPGFQDTFTSSFSFIQLSLG
modifications: left off: a dimerising Fc or GST
For B3, the “inhibition of β-catenin, axin and GSK3β phosphorylation” value in the experiment with GSK3β (GST fusion proteins at 0.5 μM) was “potently inhibited β-catenin, axin and GSK3β phosphorylation”. Further, the “inhibition of GSK3β Y216 phosphorylation” value in the experiment with GSK3β (at 0.1 μM) was “no inhibition”; in the experiment with GSK3β (at 1 μM), “plateaued”. Moreover, in the experiment with GSK3β, the “inhibition of GSK3β activity by DISC1 fragments” value is “able to inhibit GSK3 activity; also recorded: most potent in inhibiting GSK3 activity; also recorded: most potent inhibitory activity on GSK3β; also recorded: dose-dependent”. Besides, the “interaction with purified His-GSK3β” value in the experiment with His-GSK3β was “strong interactions; also recorded: directly associate with purified GSK3β; also recorded: interacts directly”.
